Columns and labels:
[1] = biological target: the molecule itself; assay: SEC; 20 mM Tris pH 7.5, 100 mM NaCl; SEPAX SRT-10-SEC-300 or Superdex 200 columns; MW standards run under the same conditions; also run with 500 μM orotate
[2] = biological target: the molecule itself; assay: cross-linking; SEC fractions in 50.0 mM Na3PO4 pH 8.0, 100.0 mM NaCl, 0.004% glutaraldehyde, quenched at time points up to 2 h, SDS-PAGE
[3] = biological target: the molecule itself; assay: AUC; sedimentation at 38,000 rpm, absorbance at 280 nm, 1 mg/ml (WT) or 1.5 mg/ml (mutants) and 1:5 dilutions, SEDFIT continuous sedimentation profiles

B1: Human uridine 5′-monophosphate synthase (HsUMPS), wildtype (enzyme, UniProt P11172 1-480, looked up)
chain: MAVARAALGPLVTGLYDVQAFKFGDFVLKSGLSSPIYIDLRGIVSRPRLLSQVADILFQTAQNAGISFDTVCGVPYTALPLATVICSTNQIPMLIRRKETKDYGTKRLVEGTINPGETCLIIEDVVTSGSSVLETVEVLQKEGLKVTDAIVLLDREQGGKDKLQAHGIRLHSVCTLSKMLEILEQQKKVDAETVGRVKRFIQENVFVAANHNGSPLSIKEAPKELSFGARAELPRIHPVASKLLRLMQKKETNLCLSADVSLARELLQLADALGPSICMLKTHVDILNDFTLDVMKELITLAKCHEFLIFEDRKFADIGNTVKKQYEGGIFKIASWADLVNAHVVPGSGVVKGLQEVGLPLHRGCLLIAEMSSTGSLATGDYTRAAVRMAEEHSEFVVGFISGSRVSMKPEFLHLTPGVQLEAGGDNLGQQYNSPQEVIGKRGSDIIIVGRGIISAADRLEAAEMYRKAAWEAYLSRLGV
notes: Human UMP synthase (UMPS), bifunctional enzyme with OPRT and OMPDC domains; codon-optimized human UMPS in pDB-His-MBP between NdeI and XhoI; expected protomer MW 52 kDa; both domains are present and the expected protomer mass of 52 kDa fits the whole protein (surmise); also called human UMPS; UMP synthase; source: E. coli BL21(DE3), purified (amylose resin, on-column TEV cleavage, Ni-NTA, SEC or …)
[1]
  stoichiometry N: 2

B2: HsUMPS E123Q (OPRT active site mutant) (enzyme, human, UniProt P11172 1-480, looked up)
chain: MAVARAALGPLVTGLYDVQAFKFGDFVLKSGLSSPIYIDLRGIVSRPRLLSQVADILFQTAQNAGISFDTVCGVPYTALPLATVICSTNQIPMLIRRKETKDYGTKRLVEGTINPGETCLIIQDVVTSGSSVLETVEVLQKEGLKVTDAIVLLDREQGGKDKLQAHGIRLHSVCTLSKMLEILEQQKKVDAETVGRVKRFIQENVFVAANHNGSPLSIKEAPKELSFGARAELPRIHPVASKLLRLMQKKETNLCLSADVSLARELLQLADALGPSICMLKTHVDILNDFTLDVMKELITLAKCHEFLIFEDRKFADIGNTVKKQYEGGIFKIASWADLVNAHVVPGSGVVKGLQEVGLPLHRGCLLIAEMSSTGSLATGDYTRAAVRMAEEHSEFVVGFISGSRVSMKPEFLHLTPGVQLEAGGDNLGQQYNSPQEVIGKRGSDIIIVGRGIISAADRLEAAEMYRKAAWEAYLSRLGV
notes: Human UMP synthase (UMPS) with the OPRT active site mutation E123Q; same construct as the wildtype; as m1 with the mutation; also called E123Q OPRT mutant; source: E. coli BL21(DE3), purified in a similar fashion as WT; not shown: His6, N-terminal, cleaved; MBP, N-terminal, cleaved
[2]
  stoichiometry N: 2

B3: HsUMPS D312N (OMPDC active site mutant) (enzyme, human, UniProt P11172 1-480, looked up)
chain: MAVARAALGPLVTGLYDVQAFKFGDFVLKSGLSSPIYIDLRGIVSRPRLLSQVADILFQTAQNAGISFDTVCGVPYTALPLATVICSTNQIPMLIRRKETKDYGTKRLVEGTINPGETCLIIEDVVTSGSSVLETVEVLQKEGLKVTDAIVLLDREQGGKDKLQAHGIRLHSVCTLSKMLEILEQQKKVDAETVGRVKRFIQENVFVAANHNGSPLSIKEAPKELSFGARAELPRIHPVASKLLRLMQKKETNLCLSADVSLARELLQLADALGPSICMLKTHVDILNDFTLDVMKELITLAKCHEFLIFENRKFADIGNTVKKQYEGGIFKIASWADLVNAHVVPGSGVVKGLQEVGLPLHRGCLLIAEMSSTGSLATGDYTRAAVRMAEEHSEFVVGFISGSRVSMKPEFLHLTPGVQLEAGGDNLGQQYNSPQEVIGKRGSDIIIVGRGIISAADRLEAAEMYRKAAWEAYLSRLGV
notes: Human UMP synthase (UMPS) with the OMPDC active site mutation D312N; same construct as the wildtype; as m1 with the mutation; also called OMPDC mutant; source: E. coli BL21(DE3), purified in a similar fashion as WT; not shown: His6, N-terminal, cleaved; MBP, N-terminal, cleaved
[1]
  binding result: binds

B4: HsUMPS S87T/Q90E (OPRT dimerization-deficient mutant) (enzyme, human, UniProt P11172 1-480, looked up)
chain: MAVARAALGPLVTGLYDVQAFKFGDFVLKSGLSSPIYIDLRGIVSRPRLLSQVADILFQTAQNAGISFDTVCGVPYTALPLATVICTTNEIPMLIRRKETKDYGTKRLVEGTINPGETCLIIEDVVTSGSSVLETVEVLQKEGLKVTDAIVLLDREQGGKDKLQAHGIRLHSVCTLSKMLEILEQQKKVDAETVGRVKRFIQENVFVAANHNGSPLSIKEAPKELSFGARAELPRIHPVASKLLRLMQKKETNLCLSADVSLARELLQLADALGPSICMLKTHVDILNDFTLDVMKELITLAKCHEFLIFEDRKFADIGNTVKKQYEGGIFKIASWADLVNAHVVPGSGVVKGLQEVGLPLHRGCLLIAEMSSTGSLATGDYTRAAVRMAEEHSEFVVGFISGSRVSMKPEFLHLTPGVQLEAGGDNLGQQYNSPQEVIGKRGSDIIIVGRGIISAADRLEAAEMYRKAAWEAYLSRLGV
notes: Human UMP synthase (UMPS) with the double mutation S87T/Q90E at the native OPRT dimer interface; same construct as the wildtype; as m1 with the mutations; also called oligomerization-deficient mutant; source: E. coli BL21(DE3), purified in a similar fashion as WT; not shown: His6, N-terminal, cleaved; MBP, N-terminal, cleaved
[3]
  stoichiometry N: 2

From paper PMC9978035, “Human uridine 5′-monophosphate synthase stores metabolic potential in inactive biomolecular condensates” (The Journal of Biological Chemistry, 2023)
